Experimental data published in publication PMC3883677, “The Quaternary Structure of the Recombinant Bovine Odorant-Binding Protein Is Modulated by Chemical Denaturants” (PLoS ONE, 2014).

Target: the molecule itself
Assay: SEC; Superdex-75 PC 3.2/30, calibrated with mass standards; 20 mM Na-phosphate pH 7.8, no GdnHCl; protein 0.1-0.2 mg/ml; monomer to dimer

B1: recombinant bovine odorant-binding protein (natural protein)
chain: AQEEEAEQNLSELSGPWRTVYIGSTNPEKIQENGPFRTYFRELVFDDEKGTVDFYFSVKRDGKWKNVHVKATKQDDGTYVADYEGQNVFKIVSLSRTHLVAHNINVDKHGQTTELTELFVKLNVEDEDLEKFWKLTEDKGIDKKNVVNFLENEDHPHPE
notes: PDB 1OBP is the cited crystal structure of the native tissue-extracted bOBP dimer (domain-swapped); also called bOBP; recombinant bOBP; source: E. coli BL21(DE3), plasmid pT7-7-bOBP, purified (Ni-agarose, HisGraviTrap)
stoichiometry N: 2
